This is an account of results in the DeepSol protein solubility set.

This data set is described as follows: soluble on expression in E. coli; label from the status in PepcDB or PDB records.
In the case of “MSLKQIPLAERMRPKTLADYVGQQHLIGSGAVLRQMIEQGQTPSMILWGPPGVGKTTLAEIIAHEVDAPFYTLSAVSSGVKEVREVIADIESNRGNLFDKGGRAILFIDEIHRFSKSQQDSLLAAVERGIVTLIGATTENPSFEVIRPLLSRCQVYVLKPQSDEDLLLLAHRAIDRDELLAAKHPVLEETEALLLYAGGDARKLLNILDLLATSEVEDRLVITNEKIRQRLQENPAAFDKGGELHYDIASAFIKSIRGSDPDAAIYWLARLIDGGEEPSFIARRLIISASEDIGLANPNAMLIAMACAEALDRIGWPEGRIPLAEATIYLATSEKSNSAYLAIDSALEYVRQSGNLPVPLHLRNAPTRLMADLDYGKGYKYSHDFPEHFVSQQYLPDKAANTSFWTPQMHTVHEAKLGERMKRWWKREKSQKDEGHHHHHH”, the “soluble on expression in E. coli” value was “soluble”.

Consider “MSLKQISIRDVAALAGVSVGSASRVINGAANVTPDVRERVDRAIAALRYRPNHAAQSLRSRTSKTIGCMFSDVANPLYARAFRALEEHFRREGYMLLLANGLNDAEREIDIIQTFQLRGMDGVILAPGNERHPGVLDAVRRLSMPAVIYDRDLAVDADAVLFDHVAGVKAAIHHLVELGHTRIALALWQVKSRPVRRRIEGYKAAFKAAGLPVPDLILQEPTPTSSAFDDVTRLLQLPDPPTAFLAQGTHTLTSTLRAIAKQGLRVPEDVSVIGIGDTDFAQTYDPPLTVLRTPTDEVAAHAVEMLLSRLAAKGDASLSPRKALIQFDLILRESCAPVAREGHHHHHH”, for which the “soluble on expression in E. coli” value is “not soluble”.

Regarding “MSLKQQVPLSTATVSMVHSVPELMVSSEQAEQLGREDQQRLHRNRKLVLMVDLDQTLIHTTEQHCQQMSNKGIFHFQLGRGEPMLHTRLRPHCKDFLEKIAKLYELHVFTFGSRLYAHTIAGFLDPEKKLFSHRILSRDECIDPFSKTGNLRNLFPCGDSMVCIIDDREDVWKFAPNLITVKKYVYFQGTGDMNAPPGSRESQTRKKVNHSRGTEEGHHHHHH”, the “soluble on expression in E. coli” value is given as “not soluble”.

With “MSLKRISIKDVALKAGVSIASVSYVLNNKIDSRIPQETIDKVKHAAEELNYRPNNIAKSLKTQRTHIIGLVVADIANPYFSQLARIIEDEANKLGYTLMIGSSDENAEKFEALINMFADRQADGLIIAPVENSEKCLLKLQKQKIPFVLIDRYLSGVEADSIQINNYDISQKVTEHLINGGYKNTLLVAYKTQLQHLLQRTQAFLNTLEKHQIQNSQVLLADKDYIDRDINTGLENMLQNAVKPDAIFFTSNKLAVSGLKKLTQLGINIPQDIAVAAFDETEAYELFPVPLTYVKQPLSAIGTTAVKMLNEKINIKNLPLQNVTLHAELHIGQSTKSKEGHHHHHH”, the “soluble on expression in E. coli” value is “soluble”.

“MSLKRTVDFSMFRCPLCDSSMDAASGKSLICTERGHTFDLSRHGYVNFLTKPVKTSYGAELFEARSRLIGECGFFDPLHDAIAELISHPKSGHEAFTILDSGCGEGSHLNALCGFDYAGKAAIGTGIDLSKDGILKASKAFKDLMWAVADVARAPFHDRQFDVVLSIFSPSNYAEFHRLLKNDGMLIKVVPRSDYLIELRQFLYTDSPRRTYSNTAAVERFTANAAHSRPVRLRYVKTLDQQAIHWLLKMTPLAWSAPKDRVSLLKEMKSADITVDVDILIGMKEGHHHHHH”: the “soluble on expression in E. coli” value is given as “soluble”.

For the sequence “MSLKRYRTLLFDVDDTILDFQAAEALALRLLFEDQNIPLTNDMKAQYKTINQGLWRAFEEGKMTRDEVVNTRFSALLKEYGYEADGALLEQKYRRFLEEGHQLIDGAFDLISNLQQQFDLYIVTNGVSHTQYKRLRDSGLFPFFKDIFVSEDTGFQKPMKEYFNYVFERIPQFSAEHTLIIGDSLTADIKGGQLAGLDTCWMNPDMKPNVPEIIPTYEIRKLEELYHILNIENTVSEGHHHHHH”, the “soluble on expression in E. coli” value is on record as “soluble”.

As for “MSLKSHKLLYQLKNKLTWLPILILAACQNNIIYHSYAPVPLDGWDKSDTLVYTLPNSIPAGNYEAEIGIRYQESYPYRDIWLEVSHNTKDTLTYVTDTLQLFLVDEAGNKTGNGLCGLYQCDLPYKASIPIRTEGSARTFRIVHIMTDNPLTGISDIGIRLRKPENEGHHHHHH”, the “soluble on expression in E. coli” value was “not soluble”.

Take “MSLKSIILEDANAKLREDAHTFVFDGHAGVKGRVDFARLGSNNPIEDDWDLKIAKGVGGTKTLYAGVYDGHAGWATSQVLRNALVPYVSGALSSLTPTTSTELVDDAIQKAFVRLDNRIFDTALKAVESGLDQGTASVISAVAPAIAGSCALLTMYEPVTSTLRTAVAGDSRAVRGAWSSNANKYETDILSIDQTGFNQLEVERLDKEHPGQLHSMLNLDSGRLFGLAVTRAFGDHRLKWPAKVIRKVQDDYYGTPPRPNYTTPPYLTARPEVTTRKIQTEDFVILGSDGLWDMISNEDAVTCISRWLSAKKSGKPEPFKETKFEGKLEDGWQATPEHHVIEDLDNAAVCLVKNAFGGSRRGLFLGAMTTYAPMSRNVRDDITVQIIFFKDPYEKEGHHHHHH”: the “soluble on expression in E. coli” value is on record as “soluble”.

Consider “MSLKSILIMGGSDFIGSALAKRLIKCGYQIDILTNGKKEIDYNGFKEHLICDRKVRKDMENIITGRKYDYIYDMTAYTKEDVSNLIDFISMDNLKKYIVLSAGAVYKDSGRNIKEENEKGENENWGKYGLNKKEAEDFIINSPIPYIIIRPTYIYGENNNLYREYYFFEKIEKNEKIPVPKGKQVSNQFIYIGDLVKVLESIMKNPHVREAYNVTNPQLISWDDLIYTCGEIIGKEPIIKYVDMEKVEFRERTYFPFRNIDFNLDINKLIEHGLYIPNVLLKEGLTATYKWFSANKPKMHDRKMNKVESVMQIEGHHHHHH”, for which the “soluble on expression in E. coli” value is listed as “soluble”.

As for “MSLKSVVNDTDGIVRVAKSVIPEIKHQDEVRVKIASSGLCGSDLPRIFKNGAHYYPITLGHEFSGYIDAVGSGVDDLHPGDAVACVPLLPCFTCPECLKGFYSQCAKYDFIGSRRDGGFAEYIVVKRKNVFALPTDMPIEDGAFIEPITVGLHAFHLAQGCENKNVIIIGAGTIGLLAIQCAVALGAKSVTAIDISSEKLALAKSFGAMQTFNSSEMSAPQMQSVLRELRFNQLILETAGVPQTVELAVEIAGPHAQLALVGTLHQDLHLTSATFGKILRKELTVIGSWMNYSSPWPGQEWETASRLLTERKLSLEPLIAHRGSFESFTQAVRDIARNAMQGKVLLIPEGHHHHHH”, the “soluble on expression in E. coli” value is listed as “soluble”.

“MSLKTFIKIILLYLMPILAFATELRPGDRLQIKFPGESAFEKSFQLDHDGKISLPEIGTVKLQGMSLLQARTVLTGKLSNAYKDLSKFDLFLKERRLTVTVLGYVKEPGPVDMPIRANVQMAINSAGGLAQGAQLDKLQIRRSSGIIEFDYKHYLDSGDPSSLPKLEPMDVIFIPASPLIGNVQVEFDARTLTASGDAGEDGEAIKVFGEVHRPGTFAFKEDASVMDMIMRAGGVTRYAGIEQIRVIHQGQPYPFDMREYLDTGNPDLMPKIHQGDVIFIPQATEQVKSGSRTVYVMGEVFKPGAMEMGEGSGFYDLLATAGGPTRFAETRQIRIIRADGKVQPFDLQGYVDSQGRTKLPSIQPGDAILVPEKTDMNEKSWLKVHPNRAVRIIGAVNRPGRYEWASEMTLMDLIAHAGGPIASADTAHLQILQQRKNGNTESVSFDLKSFLDEGHHHHHH”: the “soluble on expression in E. coli” value is given as “not soluble”.

With “MSLKTLSDDLYKQFSNFLAVQSGIVLGDNKQYLVKSRLSPLMTQFGIESLSDLVTRAMSVRERDLKMAVVDAMTTNETLWFRDTYPFQLLTDKIFPELGKSGRPIKIWSAASSSGQEPYSIAMTALEQQVKKPGTLPGGVQIVGTDISSTMLNQCKEGVYDSLALARGLSPERKKLFFEPYGDNKMRVVERVRKLTTFRPLNLLESYSLLGKFDIIFCRNVLIYFAPEVKSKILNQFAASLNPGGYLMLGASESLAGLTDRFEMIRCNPGIVYKVKEGHHHHHH”, the “soluble on expression in E. coli” value is recorded as “soluble”.

As to “MSLKTPIFAQQTDPALTSAVLGQTAALKKVHKDRKKTQEKIIAAEVAVTASLERIHHVEDKMLDYLSNAQGAMQNLYQIKRAGELVAKEIPQNCSLLLKSVGGNLKGTVIAAMVSDELTDAATQMTALFPFMKQLVTSGKYDVTGDDGKNEKHKVNLLNASERYYIANEVVSRLEAINTNLFILAWQVRTLSWNDLWFSLDPEGWANVMSGKNIIGGIISDWNQGYSLKEGHHHHHH”, the “soluble on expression in E. coli” value is “soluble”.

Regarding “MSLKVLICDDDKIVRDDIANIAKESGYVDYVKKVKDGIEAIEFIKNEKIDLLIIDIDMPYKNGIDSAEEILSIDKDIHIVFVTGFADYSLESFKVHPIDFVVKPFKKEKILDSINIAIDHINSHKIANNNFIEDTLFVYKIRKQIHMINFDDIVMFEKNSRAINLHTKDEDIIKFYENFDDLKKRLPPNFFMTHRQYIVNLRFIHKVIPINKSSLEIRFINFQENAILNKSLEKDFLYRFYREGHHHHHH”, the “soluble on expression in E. coli” value was “not soluble”.

Consider “MSLKWNRPAGSLSATLILAHGAGAPMDSPFMERIAELLAAQGIAVARFEFPYMAQRREDGRKRPPNPQAQLLDCWRRVHAQVRETLDGPLALGGKSMGGRMASLLADELGADALVCLGYPFYAAGKPEKPRVAHLAGLRTPTLIVQGERDALGNREAVAGYALAPTIRLHWLAAADHDLKPLKASGLTHEQHLAATAREVAGFLRGLQGH”, for which the “soluble on expression in E. coli” value is recorded as “not soluble”.

Regarding “MSLLMIIDCHGHYTVLPKAHDEWREQQKAAFKAGQPAPPYPEISDDEIRETIEANQLRLIKERGADMTIFSPRASAMAPHVGDQSVAVPWAQACNNLIARVVDLFPETFAGVCMLPQSPEADMTSSIAELERCVNELGFIGCNLNPDPGGGHFKHPPLTDRFWYPFYEKMVELDVPAMIHVSGSCNPAMHATGAYYLAADTIAFMQLLQGNLFADFPTLRFIIPHGGGAVPYHWGRFRGLADMLKQPSLDTLLMNNVFFDTCVYHQPGINLLADVIDNKNILFGSEMVGAVRGIDPTTGHYFDDTKRYIDALDISDQERHAIFEGNTRRVFPRLDAKLKAREGHHHHHH”, the “soluble on expression in E. coli” value is “soluble”.

Turning to “MSLLWKKAQEETHDYIIRKADPSDAAGIISCMQSVMDERIYLVGEYYLLSERAEQERIKSLDDLTLVCVIDRKVVGVLTVQRGIYRKNRHTGMLGIAIMAGHRHKGLGTRMIKEAILWCEDQGIKKLNLEVFSTNVNAIKTYEKVGFEVEGKRRKQFLIDGQYVDDVLMTYYVDKSLKEEGHHHHHH”, the “soluble on expression in E. coli” value is recorded as “soluble”.

Regarding “MSLMIRAITIFVTNYSKISDYTEKLSKLNDNNIWSKRISLPPTPIDLSLSKLIELLPTTHSEIIFSLINLQEKDKRLREIKDILKSDKRIYVHVLVKTTDNLKDLAKLIISLEPEEASRFALLFNQDFLLTPYFPTSSANTVYDSFGISLLYVDEFKQGKINEALSKADTIGRQLEKKLNIKYLGIDASLSPWMESSVGEIVESRSKKMFDISNLSAVAEINREIFEGVWRNRVNPIGFSELMLPIAEDNLLRERVKEGSLTLKDLLLMSYVCVAGIDMVGIYSDLVTYENILKSVYYIQYTKRKPYGVRMIPTNGSPVLTKMFGEIPEVKVVEGHHHHHH”, the “soluble on expression in E. coli” value was “soluble”.

“MSLMRKNETREFLIEDIEFPAVGVAFYNDKKVYIKGAVPGQKVLARVSKVRREKIEAKLKEIVTNIPGAAQPKCPDFGVCGGCVHQFLPYEKQLEFKEREVLKLFKDAKIEGFEYLGILGSPEKEEYRNKMEYTFGDFVKGGELTLGMHAKDSGFSIVNTDKCNIVDEDFRIILKTVVEYFRKKDLPIYKVMQHVGYLRNLVVRKAKNTGEILIALVTTSQVDFDLTELTEILKSINYLGELKGILHVINDGLADMVRGDKIVTLFGQDYITERILDLKFKMSLFSFFQTNSKGAEKLYSEVLEFLGDVSNKTVFDLYCGTGTIGQLASKKAEKVIGIELIEEAVEAAKENTKLNNISNCSFIAGDVAKVITEIKEKPDTIILDPPRPGVSPNAMKYVIKFNAPEIVYVSCNPKTLVNDLGVLRAYGYEVEKVKIVDMFPGTGHVETVVLLQRKIIEGHHHHHH”: the “soluble on expression in E. coli” value is “soluble”.
